Measured values from the DeepSol protein solubility set.

Test: soluble on expression in E. coli; label from the status in PepcDB or PDB records
In the case of “SAAGVPCALVTSCSSVFSGDQLVQHILGTEDLIVEVTSNDAVRFYPWTIDNKYYSADINLCVVPNKFLVTAEIAESVQAFVVYFDSTQKSGLDSVSSWLPLAKAWLPEVMILVCDRVSEDGINRQKAQEWCIKHGFELVELSPEELPEEDDDFPESTGVKRIVQALNANVWSNVVMKNDRNQGFSLLNSLTGTNHSIGSADPCHPEQPHLPAADSTESLSDHRGGASNTTDAQVDSIVDPMLDLDIQELASLTTGGGDVENFERLFSKLKEMKDKAATLPHEQRKVHAEKVAKAFWMAIGGDRDEIEGLSSDEEH”, the “soluble on expression in E. coli” value is reported as “soluble”.
In the case of “MGSDKIHHHHHHMELVDKDLRSIQETRNLIRKAKEAQQVLATFSQKQIDAIVQAVSEATFNQREKLAKMANEETGFGIYEDKIIKNAFASKVVYDEMKDKATVGVIHDDAAKKVTEIAVPVGVIAGLIPSTNPTSTVIYKALISLKAANSIVFSPHPNALKSIIETVEIIQKAAIAAGAPEGCVSVIKTPTMQATSELMKNKETNLILATGGNAMVKAAYSSGTPAIGVGPGNGPAYIERSANVPHAVKQIMDSKTFDNGTICASEQSIIVETVNREAVKEELIKQGAYFLSPAEADKLAKFILRPNGTMNPQIVGRSVQHIASLVGLSIPKDRRLIVAEETHVGLKYPFSREKLAPIIAFYTVENWEAACALSIEILKGEGAGHTMGIHTENKEVIREFGLRKPVSRLLVNTSGTLGGIGASTNLVPALTLGCGAVGGSSTSDNIGVENLFNLRRVAYGVRDLEEIRQEFGQTSTTSVATSCETTNQEELVNAVVAQVLARLN”, the “soluble on expression in E. coli” value is reported as “not soluble”.
For “MSLNSPIQAVIFDWAGTIVDFGSFAPTSIFVEAFKQGFDFEISLAEAREPMGLGKWQHIEAVGKLPTVAQRWQKQFGRPMQASDIDAIYAAFMPLQIAKVADHAAPIPHSLEVVEQIRSRGIKIGSCSGYPRQVMDVLIAAAADYGYRPDYVVATDDLAQGGRPAPFMALKNVIELGVTDVRACVKVDDALPGIEEGHNAGMWTVGLLLSGNEAGLTLEEYQHADDQTLQAARERAQAKLQQAKPHYLIDTVADLPAVLAQIEQRLLAGEREGHHHHHH”, the “soluble on expression in E. coli” value was “soluble”.
For “MAHHHHHHMDSEETINLAVKYAKEAVVEDEKKNYKEALNLYIQSLQYFNFFCKYEKNSNIRDLILKKMEVYMTRAENLKEMLNKKDSIENKEKITNTEETKENMKKQIKQFILNKNNNIKWSDVCGLETAKEVLKEAIIFPLKFPKLFNSSTLPYKGILLYGPPGTGKTFLALACSNECNMNFFNVSSSDLVSKYQGESEKYIKCLFETAKEHSPAIIFIDEIDSLCGSRTDGENESTRRIKTEFLINMSGLTNYKNNIIVMGATNTPWSLDSGFRRRFEKRIYIPLPNIYARAKIFEKYINQNENNNISKEDIKQFATLTENYTGADIDILCRDAVYMPVKKCLLSKFFKQVKKNNKICYTPCSPGDSDPTKVEKNVMSLSENELSLPPLTVQDFKTAISNAKPSLSVDDIKKYEEWTHQYGMNGT”, the “soluble on expression in E. coli” value was “not soluble”.
In the case of “AAGVLKHRRRKEKAQRKLVGMQANLDRLSDLTAELGKQLKPLARQAEAARKAATIQSEVRDARLRIAGYQIHSLASSLKDAQSHHDSIAEKLEEVTEQLEEATGVQLEAEDALGKISPEAEKSQQLWFELSSLAERVSATQRIATDRAKNFSEVRYSGPDPDELAEKAARADAEYAEAEETVDILSERLESIQDNVAELEEQAQRADREHLAQVRAIADRREGIVRLLTLESQQREHIVAAEAELERLREAESDIAAQARSKDAEHKDCQTQAQEARSRIEPLSQSRDAALNESRAADSRLEQLREQQSDIDKSISRLESKIETLESHRMTRNAVKQWEKLQSFYGVDRYIIPQRGMEKAIAAALGPVAEALVGETTTAELQALDIESLARHIVITPGEDHDWRLATDLPHYASWLLDYVELAPEVSSTIVQILADVVLVDSYEHGREVVNHDPRLRAVCVDGTMWGHGWVAVGSAERSAVEIAAEIDQAEKDLEVARLQRVELAGTLNGAHQAADEARVRSAQAQAVCREQEIVVENFSRRVEAVSHEAEARKQELRRHALRVQEAQDRLNQLRQLWEETSDRLSRVEEDNSEEEPSTSERDKAAAALSHMRSMEVEARLSLRTAQDKAEHIRGRGDGLRRQAEYERQARARHDQAVARQRRKAEIASVVAQQCLVVAERVDDALARATQWKENAIAQRGVISARVSAAKDTVSALRTNANRLTEKSHAAELSLGQAQVRLEEAHEKIVEQLGIAISDLMRDYTPHEGFDIGAQRVRLKNAEKDLNALGKVNPLALEEFKALEERYEFLSTQLADVEQARRDLHGVINDVDTKILQ”, the “soluble on expression in E. coli” value is reported as “not soluble”.
With “MSLKTKTFKMQLQFLSEQNLEINNNNQLLNQEKITYLQKIEQLKCKLEYQERMIKDSEKIREESFASAKAALFDLGKDLSKQLIEIHKMENNTTRELAEKNIETASQKFNTELERLITMVGALNKDIEQSKGTVDLIKQSLLSPIGAGLLSEITLENILKSSGLRPNLDFIMQYSLTTSDSVKLRPDAIIFLPSGNLMVIDSKASKFLVDSQDNSVHLSKTMNYHLKTLTNKDYAENILTNLNKKTQNFNNVITLMFLPTEQAVEKVIAANPEFLQKAWGCNIFPVGPAGLMNMLSFAKFQITDNRRSENYKVIIEEVRKLLSSIGTIADYSKKIGYNLQNMVTNYDKFAASFNRNVMSRVKSIQKLGIDSGNKIIPATLERYQIVSAKSEIIEVDVENQHKEGHHHHHH” the “soluble on expression in E. coli” value was “not soluble”.
In the case of “MAHHHHHHMGENRRPSRWSSERYTNLFVPNYIPPELMLYDEGQFLRAFLLRVLSIDLNRLIETKRCGDYFINIPLVPEYNSEGQRTNTPDELVAEKRLKVMDELTNLLRQHSELELNAKTQKEVVRKRYFTQEEMDNGAYGAILGARGMVHQELERLTKCKIVLAGRGITNALKDTSANAARVALEDPHARITAPNEQALQHAMERIEWILSDDPEALEFRENNRKRMAQIEGRYDPRTWVSLAERNAKNPRRMGEKREREEEAKEELDADLQEFLDEL”, the “soluble on expression in E. coli” value is reported as “soluble”.
For “HSIISETTNTNYRQEFVQLGTQMSGKLSFEEWKELYRRIVFWEIELEQADRQMGELLEMQKQEANRLFARFVTQNYREWIAKPDTRPTMSPDLFKQKVFPLLDNGEKVFFILIDNFRQDQWESVKSMLSEFYTFEEDMYLSILPTATQYARNAIFSGLMPLQIEKMFPDLWVDEESEEGKNLNEEPMIRTLIERYRKHYSFSYNKVYETKFGERLLGQIRSLSQNQLNVIVLNFVDMMSHARTDSKMIRELASNEAAYRSLTKSWFKHSTTYNLFRSIAEMGYKVVLTTDHGTIQVKNPVKVIGDRSTNTNLRYKIGKNLDYNPKEVFEIKDPASVGLPHNNLSDKFIFTKEDDFFAYPNNYNYYVQYYRNTFQHGGISLEEMLVPVITMQPK”, the “soluble on expression in E. coli” value was “soluble”.
For “MTLTAQKNSWWVGAHAGREYFNNTSEDMKKGWNTGVVLRYYFSDRIYSLATLNYGFASSLSPSGYFDELGNSPNARFRRHSILPAVGLGYEFFQGDFYSCYAQGGVGYGMEYNSVSYPQEYDVSVKRFGWLAELGGDYFLRDNLSLGISVAHLRVGWRNNWTANVKLSICLL”, the “soluble on expression in E. coli” value was “not soluble”.
With “MGSDKIHHHHHHVKEIRERGGTVKQQLITTHDGGRLALYSYGTVDAPGERRVVVIGGAFLTALIYRPFSEALSKGLGDGWAVDVYDRRGRGESTPQPADYSMATEIADVRTIMDATGARNLFGHSLGGSVALNAVQEFVGTAHQPDRLAVYDAAVNIDGSVDTSWLDSFERSVNEGNVPHALAKLKKGMQPGTAMARIPEPVLAGLMALVSRTKVNRLFKEVMPSGVGELKAVFDEADHVRDFSVLPPNTRFMVGSKSPRYYKVTAELLHRAVPGSVLQVSPKCVHASIPAAVKELVADISAYYKG” the “soluble on expression in E. coli” value was “not soluble”.
In the case of “MSLDKLLERFLNYVSLDTQSKAGVRQVPSTEGQWKLLHLLKEQLEEMGLINVTLSEKGTLMATLPANVPGDIPAIGFISHVDTSPDCSGKNVNPQIVENYRGGDIALGIGDEVLSPVMFPVLHQLLGQTLITTDGKTLLGADDKAGIAEIMTALAVLQQKKIPHGDIRVAFTPDEEVGKGAKHFDVDAFDARWAYTVDGGGVGELEFENFNAASVNIKIVGNNVHPGTAKGVMVNALSLAARIHAEVPADESPEMTEGYEGFYHLASMKGTVERADMHYIIRDFDRKQFEARKRKMMEIAKKVGKGLHPDCYIELVIEDSYYNMREKVVEHPHILDIAQQAMRDCDIEPELKPIRGGTDGAQLSFMGLPCPNLFTGGYNYHGKHEFVTLEGMEKAVQVIVRIAELTAQRKEGGSHHHHHH”, the “soluble on expression in E. coli” value is reported as “soluble”.
For “MLKFRTVHGGLRLLGIRRTSTAPAASPNVRRLEYKPIKKVMVANRGEIAIRVFRACTELGIRTVAIYSEQDTGQMHRQKADEAYLIGRGLAPVQAYLHIPDIIKVAKENNVDAVHPGYGFLSERADFAQACQDAGVRFIGPSPEVVRKMGDKVEARAIAIAAGVPVVPGTDAPITSLHEAHEFSNTYGFPIIFKAAYGGGGRGMRVVHSYEELEENYTRAYSEALAAFGNGALFVEKFIEKPRHIEVQILGDQYGNILHLYERDCSIQRRHQKVVEIAPAAHLDPQLRTRLTSDSVKLAKQVGYENAGTVEFLVDRHGKHYFIEVNSRLQVEHTVTEEITDVDLVHAQIHVAEGRSLPDLGLRQENIRINGCAIQCRVTTEDPARSFQPDTGRIEVFRSGEGMGIRLDNASAFQGAVISPHYDSLLVKVIAHGKDHPTAATKMSRALAEFRVRGVKTNIAFLQNVLNNQQFLAGTVDTQFIDENPELFQLRPAQNRAQKLLHYLGHVMVNGPTTPIPVKASPSPTDPVVPAVPIGPPPAGFRDILLREGPEGFARAVRNHPGLLLMDTTFRDAHQSLLATRVRTHDLKKIAPYVAHNFSKLFSMENWGGATFDVAMRFLYECPWRRLQELRELIPNIPFQMLLRGANAVGYTNYPDNVVFKFCEVAKENGMDVFRVFDSLNYLPNMLLGMEAAGSAGGVVEAAISYTGDVADPSRTKYSLQYYMGLAEELVRAGTHILCIKDMAGLLKPTACTMLVSSLRDRFPDLPLHIHTHDTSGAGVAAMLACAQAGADVVDVAADSMSGMTSQPSMGALVACTRGTPLDTEVPMERVFDYSEYWEGARGLYAAFDCTATMKSGNSDVYENEIPGGQYTNLHFQAHSMGLGSKFKEVKKAYVEANQMLGDLIKVTPSSKIVGDLAQFMVQNGLSRAEAEAQAEELSFPRSVVEFLQGYIGVPHGGFPEPFRSKVLKDLPRVEGRPGASLPPLDLQALEKELVDRHGEEVTPEDVLSAAMYPDVFAHFKDFTATFGPLDSLNTRLFLQGPKIAEEFEVELERGKTLHIKALAVSDLNRAGQRQVFFELNGQLRSILVKDTQAMKEMHFHPKALKDVKGQIGAPMPGKVIDIKVVAGAKVAKGQPLCVLSAMKMETVVTSPMEGTVRKVHVTKDMTLEGDDLILEIE”, the “soluble on expression in E. coli” value was “soluble”.
For “MRSSKGGRGRQAAPKTAPTTVCYCDGKRELGSVEVVCSTCLKWFHGRCLKEFHELNSNGVPFMICYTFTCKQCRPTAEDWKAKKADLVQMCVTVLATLSAERLKADGKLSAEHVPEDFTYLSLKDEIVPYMNENWYMLTAIKQKKEWHQNLAPTLLKEKNIFVQHNDDDDLFALAEKNLSLLGPLHEAVKLIGKRPIERENREPRHIELPPIEGPKTRGASKRRHAEAPVTGKKQKLAADYSSTAAPNGVQIDIPFSKDNYRYYLTEVDPNVPEDPAWNQNQSSAYVIPSFHYRELLNPTVNVSSNDRAFQLSINGNSITGFEGYSMARASHGVSKGTWYFEVNFDDQPDDSHIRIGWSQSYASLQACVGYNKFSYGWRSKHGTKFHEAKGKKYHFGGFKQGDVLGCLIHLPVDKKLQIPANLPSEKYLPVSHKGFNLISFKANYFFEVQEESADIAKTLVEMPGSYIEFFHNGKSCGKAYENIYAGAYYPSISIFKSATATMNLGPKFRNLPRGATGIHARADEQQHEQTLSDMLYLVSKEVNLDHPPRVKREDDDDVKDIKKEIKQEI”, the “soluble on expression in E. coli” value was “not soluble”.
In the case of “MSLSSQPRFIHLRTHTDFSMIDSIVKVKPLVKACAANEMVAMGLTDFTNFCGVVSFYSEMLSSGMKPIIGADVKVKSPLCGDEYFDLTLLAKNNEGYRNITLLLSKAYQRGYNDLPYIDQDWLIEHRDGVIILSGGTQGDVGKKLLKENVAEIESAVAFYQEFFADHFYLALSRTGRPNEERYIQAALKLAERCDLPLVATNDVMFLNTEDFEAHEIRVAIHDGYTLDDPKRPKCYTSQQYFRSEEDMCKLFADEGHHHHHH”, the “soluble on expression in E. coli” value is reported as “soluble”.
